Legend:
[1] = biological target: T1, YY1 (UniProt P25490 1-414); test: EMSA; complex diminished by anti-YY1, not by IgG (Fig 2C); Pull-down: 25 mM Tris, 150 mM NaCl, pH 7.2, room temperature, 30 min; EMSA: LightShift chemiluminescent kit, 5% native PAGE, buffer not stated; conditions: protein: recombinant; tags: N-terminal 3xFlag; label: 5'-biotin
[2] = biological target: T1, YY1; test: EMSA; Pull-down: 25 mM Tris, 150 mM NaCl, pH 7.2, room temperature, 30 min; EMSA: LightShift chemiluminescent kit, 5% native PAGE, buffer not stated; conditions: protein: recombinant; tags: N-terminal 3xFlag; label: 5'-biotin

T1 sequence (P25490 whole entry): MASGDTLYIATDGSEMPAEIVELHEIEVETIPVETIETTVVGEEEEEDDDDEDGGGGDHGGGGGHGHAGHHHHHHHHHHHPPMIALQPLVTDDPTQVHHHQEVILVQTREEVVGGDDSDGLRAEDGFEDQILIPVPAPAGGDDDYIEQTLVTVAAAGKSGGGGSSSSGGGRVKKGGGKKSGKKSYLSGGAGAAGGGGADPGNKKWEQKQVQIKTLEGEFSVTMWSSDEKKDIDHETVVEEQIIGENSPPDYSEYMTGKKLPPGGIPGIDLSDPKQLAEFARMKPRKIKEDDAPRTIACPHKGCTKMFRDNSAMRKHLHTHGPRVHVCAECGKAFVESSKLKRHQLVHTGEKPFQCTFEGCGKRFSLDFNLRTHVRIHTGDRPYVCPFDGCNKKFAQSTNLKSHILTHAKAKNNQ

B1: WT FEN1 (dsDNA)
DNA 1: AACGCTCTCACCATTTTGCCCCGCGAAG
DNA 2: CTTCGCGGGGCAAAATGGTGAGAGCGTT
Does B1 bind [1]?
Result: binds

B2: MUT FEN1 (dsDNA)
DNA 1: AACGCTCTCAGCAATTTGCCCCGCGAAG
DNA 2: CTTCGCGGGGCAAATTGCTGAGAGCGTT
Does B2 bind [2]?
Result: no binding

Source: PMC4348373, “YY1 suppresses FEN1 over-expression and drug resistance in breast cancer”
